Laboratory results published in the supplement of paper PMC12042874.
± gives the uncertainty stated by the source.

Test: amyloid nucleation score (Sup35N fusion, yeast selection) (log enrichment); library NNK3; higher = more nucleation; inactive = no reads after selection
Method in brief: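 Psi-negative yeast expressed Sup35N fused to peptides of 20 random codons. They were induced 24 hours with 100 μM copper sulfate, grown 7 days at 30°C without adenine and uracil, and their plasmid inserts from input and output were Illumina-sequenced. The nucleation score is the DiMSum log enrichment of output over input reads, centred on the mode score of non-aggregating sequences. Sequences with under 100 input reads were excluded.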

Substance | amyloid nucleation score
NLKLAWNRLSRMHWFLMNRS | inactive
NLLLFF | 1.82 ± 0.096
NLMFVLHRTSWSNFCLKRKC | inactive
NLNGFYSRGVIFR | inactive
NLPHRLVTNRMCGAGGFGII | inactive
NLPLYPSGFFKSMIRNRVLT | 1.66 ± 0.083
NLRHYTVDMLCSNYEYVIVY | inactive
NLRKKWFWAYNPSYETSPLV | inactive
NLSNLLNLVRLVRGRLGNAA | inactive
NLSVGRALTWHPSPWDQQIW | inactive
NLTGCMDLC | 0.853 ± 0.19
NLTINVVAVQFLFMTTGY | 2.63 ± 0.08
NLYMDEHHFKAFNGCTNQLI | inactive
NLYRRYHVHSKRALSIYSTP | -0.033 ± 0.23
NMDNHTPG | inactive
NMDSAWKCPHPYKSLTIVCF | inactive
NMFSGVG | inactive
NMGALIRSRQVEVSHKRVSG | inactive
NMIFA | inactive
NMMPREPDTFMGYSGRRLCV | -0.284 ± 1.1
NMRGEFQTLANWVWLLQRVL | inactive
NMSWNVCVRFK | 1.87 ± 0.068
NMVHCVLCIAHEHLKVFVMC | inactive
NMVIV | inactive
NNDIVKGSPPPWVMFLVALH | inactive
NNERITWERDIRSRCFPVLV | inactive
NNGSP | inactive

Substance | amyloid nucleation score
NNGSSRYMWSSYFLVGY | inactive
NNIFWMRFMFDPWRR | 1.04 ± 0.21
NNLRNIPE | inactive
NNLSNWIRKVCNSYYHPTYQ | inactive
NNQCKACSLWWQSSYPDKMF | inactive
NNTCMNGAVLWSEMAKTGGC | inactive
NPCHCQRRINFVL | inactive
NPFLSCKNYGICSYVGTNVF | 1.09 ± 0.096
NPSTLYCGSLHSLVLRSFLI | inactive
NPVGT | inactive
NQTGSSRTSCCMDRWLMYIA | inactive
NRALNW | inactive
NRFVDLGGQHDTHCVRGYGL | inactive
NRFVNLSNRMVYDFRYRMAV | inactive
NRGLWRM | inactive
NRGSGRSMYMRSSFYSESGS | 0.522 ± 0.28
NRLRV | inactive
NRNATSCGKPAFNKWNYFCQ | inactive
NRRWILRRLLPSVNLSE | inactive
NRSFSNGCVIRLELFNNVYA | inactive
NRSLEVNELI | -0.412 ± 0.68
NRSTGVKSQGIDFLLSCFLV | inactive
NRSTLYSSLCGYRVRENISW | 1.4 ± 0.097
NRTWIGIIHLFGLYYGVCGG | 0.621 ± 0.2
NRWEFVHLLSYWNKSCDLCC | inactive
NRYHRIIRDAIRKDYTVCSL | inactive
NSASSFCPRRLCYGRRQEDL | inactive

Substance | amyloid nucleation score
NSDLIRVNRSVMYAKETCEV | inactive
NSGLSG | inactive
NSIIGTVDGKSGSNRVRSP | inactive
NSKLRLFWRTGMVHSVVDVS | inactive
NSKNFIMSISRLGYLASF | inactive
NSLNKGKFHWVNIGTSSLQG | inactive
NSLWSYMGTVLFNPFWLVWR | inactive
NSPTYYPHSFLMTYKALSFT | inactive
NSRHLDIFRMFDNFSVCHQP | inactive
NSSAYFFDAAGSTRLDQASY | inactive
NSSLCYFENLTTAIFVMEWI | inactive
NSTINAPRLTRPGGPCSRKV | inactive
NSWIMYRGGKDDDFVVPWAA | inactive
NTCSLFSKISDNIQRSAHAR | inactive
NTFDTVLFRDLVYL | inactive
NTFWLGVRIDGVFGWATNLP | inactive
NTHAVLICKCKDCEWNMIGG | 0.246 ± 0.66
NTLWYIWGG | inactive
NTPLWAFPEVLSDHNFN | inactive
NTRRNYNGRYLVLCIRLQLR | 1.81 ± 0.072
NTVEPLYCCCSNRCISVSYV | inactive
NVCDRLLDKPHELSFSEKSV | inactive
NVDVTELCTAVTYNDLHGFR | inactive
NVFLMAYRVYACKLRGTGLS | inactive
NVFSFFTTSSEKGLCPPRRS | inactive
